In the supplement of paper PMC9876800:

System: peptide library, one residue held at a place counted from the S/T acceptor
Experiment: relative phosphorylation of the sub-library (ratio to the mean residue at this position); higher = residue favoured
Settings: human
Procedure, shortened: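 Purified recombinant kinases, either human or orthologue constructs, were incubated in 384-well plates with biotinylated degenerate peptide sub-libraries. Each sub-library fixed one residue at one position around a central Ser/Thr. Peptides at 50 μM and 50 μM ATP spiked with γ-32P-ATP were used for 90 min under kinase-specific conditions, and spots on streptavidin membranes were phosphorimaged and quantified by densitometry. Relative sub-library phosphorylation is expressed as a ratio to the mean residue at that position.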

MAPK12, construct: Full length, sequence (P53778 whole entry, looked up): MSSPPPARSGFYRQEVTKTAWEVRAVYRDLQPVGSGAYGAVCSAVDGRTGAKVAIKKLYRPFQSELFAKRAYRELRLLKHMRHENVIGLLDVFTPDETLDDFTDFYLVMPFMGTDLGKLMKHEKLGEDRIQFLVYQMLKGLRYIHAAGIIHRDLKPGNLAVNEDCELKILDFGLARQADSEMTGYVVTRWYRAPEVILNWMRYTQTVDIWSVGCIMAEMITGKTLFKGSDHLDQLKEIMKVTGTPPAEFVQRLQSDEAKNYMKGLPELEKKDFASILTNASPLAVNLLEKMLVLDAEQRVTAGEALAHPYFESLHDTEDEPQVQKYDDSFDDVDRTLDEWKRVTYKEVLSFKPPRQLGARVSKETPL
GRK6, construct: Full length, sequence (P43250 whole entry, looked up): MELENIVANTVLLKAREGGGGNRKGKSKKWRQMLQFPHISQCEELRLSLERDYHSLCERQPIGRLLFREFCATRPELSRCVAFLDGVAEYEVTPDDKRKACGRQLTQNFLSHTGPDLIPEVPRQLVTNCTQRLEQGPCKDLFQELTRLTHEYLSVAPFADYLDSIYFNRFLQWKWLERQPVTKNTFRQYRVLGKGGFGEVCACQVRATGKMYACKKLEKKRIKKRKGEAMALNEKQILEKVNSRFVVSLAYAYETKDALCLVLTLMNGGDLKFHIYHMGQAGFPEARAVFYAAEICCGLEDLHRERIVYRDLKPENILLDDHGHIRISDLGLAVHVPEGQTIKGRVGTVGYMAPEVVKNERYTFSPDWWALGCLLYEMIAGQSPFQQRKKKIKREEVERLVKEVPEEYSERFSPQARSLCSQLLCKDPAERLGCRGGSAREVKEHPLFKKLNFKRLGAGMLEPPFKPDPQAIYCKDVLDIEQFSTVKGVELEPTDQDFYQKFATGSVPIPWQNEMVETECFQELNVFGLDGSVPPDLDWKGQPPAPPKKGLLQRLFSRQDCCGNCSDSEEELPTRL
ROCK2, construct: aa5-554, sequence (O75116 5-554, looked up): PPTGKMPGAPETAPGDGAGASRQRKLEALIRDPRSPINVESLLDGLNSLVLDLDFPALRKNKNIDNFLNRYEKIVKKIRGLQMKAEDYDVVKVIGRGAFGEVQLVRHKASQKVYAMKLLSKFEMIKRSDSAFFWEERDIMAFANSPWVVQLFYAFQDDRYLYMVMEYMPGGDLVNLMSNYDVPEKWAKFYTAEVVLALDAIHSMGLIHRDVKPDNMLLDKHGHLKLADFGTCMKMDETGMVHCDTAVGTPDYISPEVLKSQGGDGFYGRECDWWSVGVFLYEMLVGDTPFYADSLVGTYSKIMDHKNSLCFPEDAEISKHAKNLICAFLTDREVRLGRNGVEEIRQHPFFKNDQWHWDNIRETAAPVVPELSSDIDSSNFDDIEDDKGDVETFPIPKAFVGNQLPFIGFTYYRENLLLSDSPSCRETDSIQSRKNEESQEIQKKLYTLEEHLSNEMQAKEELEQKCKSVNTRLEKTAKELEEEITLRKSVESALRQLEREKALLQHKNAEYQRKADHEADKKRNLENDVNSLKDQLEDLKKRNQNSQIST

ROCK2, construct: aa5-554 (from UniProt O75116)
relative phosphorylation
Settings | at +1 | at +2 | at +3 | at +4 | at -1 | at -2 | at -3 | at -4 | at -5
A fixed | 0.695 | 1.01 | 0.926 | 0.921 | 0.75 | 0.607 | 0.647 | 0.938 | 1
D fixed | 0.471 | 0.48 | 0.757 | 0.745 | 0.406 | 0.263 | 0.297 | 0.58 | 0.562
E fixed | 0.455 | 0.51 | 0.614 | 0.751 | 0.301 | 0.251 | 0.28 | 0.613 | 0.471
F fixed | 0.69 | 0.707 | 0.962 | 1.1 | 0.559 | 0.474 | 0.341 | 0.622 | 0.679
G fixed | 0.957 | 0.876 | 1.73 | 1.31 | 1.08 | 0.706 | 0.724 | 1.22 | 1.19
H fixed | 0.984 | 1.16 | 1.25 | 1.1 | 1.16 | 1.42 | 1.59 | 1.13 | 1.25
I fixed | 1.49 | 1.29 | 0.948 | 0.984 | 0.482 | 0.3 | 0.281 | 0.516 | 0.692
K fixed | 1.19 | 1.44 | 0.998 | 1.2 | 2.77 | 2.71 | 2.57 | 2.3 | 2.45
L fixed | 1.48 | 1.08 | 0.952 | 0.886 | 0.912 | 0.391 | 0.304 | 0.504 | 0.494
M fixed | 1.52 | 0.743 | 0.876 | 0.929 | 0.792 | 0.446 | 0.361 | 0.707 | 0.571
N fixed | 1.43 | 0.734 | 0.931 | 1.04 | 1.15 | 0.937 | 0.637 | 0.836 | 0.779
P fixed | 0.266 | 0.935 | 1.28 | 1.29 | 1.28 | 0.665 | 0.785 | 1.19 | 1.04
Q fixed | 1.51 | 0.75 | 0.835 | 0.946 | 1.09 | 0.801 | 0.651 | 0.904 | 0.865
R fixed | 1.77 | 1.81 | 0.97 | 1.07 | 2.2 | 5.27 | 6.24 | 2.89 | 2.83
V fixed | 0.908 | 1.48 | 0.835 | 0.727 | 0.619 | 0.321 | 0.297 | 0.555 | 0.641
W fixed | 0.616 | 0.922 | 1.08 | 1.09 | 0.528 | 0.762 | 0.53 | 0.822 | 0.736
Y fixed | 0.564 | 1.07 | 1.06 | 0.914 | 0.929 | 0.681 | 0.461 | 0.673 | 0.758
pThr fixed | 0.595 | 0.566 | 0.556 | 0.763 | 0.336 | 0.465 | 0.494 | 0.755 | 0.805
pTyr fixed | 0.409 | 0.592 | 0.736 | 0.663 | 0.386 | 0.338 | 0.435 | 0.489 | 0.705

GRK6, construct: Full length (from UniProt P43250)
relative phosphorylation
Settings | at +1 | at +2 | at +3 | at +4 | at -1 | at -2 | at -3 | at -4 | at -5
A fixed | 0.673 | 1.15 | 0.704 | 0.819 | 0.727 | 0.898 | 0.871 | 1.07 | 1.01
D fixed | 1.13 | 1.55 | 2.51 | 2.04 | 1.42 | 0.993 | 1.73 | 1.37 | 1.41
E fixed | 2.44 | 1.11 | 3.21 | 1.96 | 1.35 | 1.02 | 1.66 | 1.44 | 1.31
F fixed | 1.1 | 0.983 | 0.866 | 0.826 | 0.903 | 1.19 | 0.803 | 0.781 | 1.03
G fixed | 0.61 | 0.867 | 0.716 | 0.91 | 0.601 | 0.761 | 0.793 | 0.935 | 0.932
H fixed | 0.721 | 0.978 | 0.758 | 0.914 | 1.35 | 0.895 | 0.92 | 1.01 | 0.988
I fixed | 1.44 | 1.17 | 0.665 | 0.78 | 0.817 | 0.848 | 0.778 | 0.951 | 1.06
K fixed | 0.654 | 0.7 | 0.59 | 0.796 | 0.854 | 0.878 | 0.806 | 0.955 | 0.873
L fixed | 1.11 | 0.765 | 0.695 | 0.764 | 1.1 | 1.88 | 0.914 | 0.98 | 0.879
M fixed | 1.25 | 0.954 | 0.78 | 0.946 | 0.948 | 1.09 | 0.852 | 0.953 | 0.882
N fixed | 0.771 | 0.893 | 0.726 | 0.864 | 1.29 | 1.02 | 1.08 | 1.03 | 0.988
P fixed | 0.36 | 0.512 | 0.631 | 1.16 | 0.692 | 0.599 | 0.716 | 0.88 | 0.864
Q fixed | 1.03 | 0.763 | 0.653 | 0.852 | 0.82 | 0.87 | 0.899 | 0.887 | 0.775
R fixed | 0.736 | 0.811 | 0.696 | 0.626 | 0.942 | 1.2 | 1.59 | 1 | 0.928
V fixed | 1.24 | 1.43 | 0.821 | 0.763 | 0.947 | 0.766 | 0.713 | 0.844 | 1.06
W fixed | 0.794 | 1.16 | 0.991 | 1.12 | 0.745 | 1.23 | 0.937 | 0.997 | 1.01
Y fixed | 0.944 | 1.19 | 0.985 | 0.858 | 1.5 | 0.863 | 0.93 | 0.922 | 0.999
pThr fixed | 2.88 | 1.34 | 1.58 | 3.36 | 0.96 | 1.16 | 2.9 | 1.6 | 1.52
pTyr fixed | 3.28 | 1.43 | 1.67 | 2.06 | 1.5 | 1.51 | 1.82 | 1.82 | 1.7

MAPK12, construct: Full length (from UniProt P53778)
relative phosphorylation
Settings | at +1 | at +2 | at +3 | at +4 | at -1 | at -2 | at -3 | at -4 | at -5
A fixed | 0.289 | 1.22 | 1.13 | 1.01 | 1.21 | 1.66 | 1.13 | 1.19 | 1.07
D fixed | 0.0904 | 0.475 | 0.864 | 0.879 | 0.738 | 0.789 | 1.23 | 1.28 | 1.22
E fixed | 0.0906 | 0.374 | 0.973 | 0.872 | 0.905 | 0.822 | 1.41 | 1.21 | 1.14
F fixed | 0.153 | 0.77 | 0.897 | 1.1 | 0.582 | 0.444 | 0.622 | 0.672 | 0.818
G fixed | 0.644 | 1.1 | 1.36 | 1.23 | 1.36 | 1.14 | 1.98 | 1.44 | 1.34
H fixed | 0.183 | 1.38 | 1.26 | 1 | 1.17 | 0.584 | 1.23 | 1.04 | 1.16
I fixed | 0.187 | 1.31 | 0.697 | 0.881 | 0.542 | 0.946 | 0.712 | 0.774 | 0.715
K fixed | 0.152 | 1.08 | 0.962 | 0.931 | 1.04 | 0.433 | 0.761 | 1.12 | 1.28
L fixed | 0.198 | 0.947 | 0.845 | 0.994 | 1.03 | 1.31 | 0.643 | 0.855 | 0.733
M fixed | 0.17 | 0.878 | 0.851 | 1.15 | 1.27 | 1.16 | 0.838 | 0.949 | 0.83
N fixed | 0.108 | 0.806 | 0.852 | 0.821 | 0.878 | 0.819 | 1.01 | 1.07 | 1.03
P fixed | 13.8 | 0.539 | 1.33 | 1.11 | 1.37 | 3.27 | 1.33 | 1.11 | 1.27
Q fixed | 0.141 | 0.914 | 0.934 | 0.921 | 1.13 | 0.742 | 0.918 | 0.916 | 0.937
R fixed | 0.174 | 1.84 | 1.28 | 0.908 | 1.48 | 0.664 | 1.05 | 1.03 | 1.06
V fixed | 0.302 | 1.36 | 0.855 | 0.89 | 0.611 | 1.31 | 0.649 | 0.654 | 0.823
W fixed | 0.181 | 0.851 | 0.894 | 1.18 | 0.674 | 0.457 | 0.674 | 0.869 | 0.725
Y fixed | 0.159 | 1.15 | 1.02 | 1.12 | 1.01 | 0.446 | 0.802 | 0.827 | 0.859
pThr fixed | 0.509 | 1.04 | 0.824 | 0.669 | 0.457 | 0.823 | 1.27 | 1.15 | 1.42
pTyr fixed | 0.52 | 0.799 | 0.925 | 0.686 | 0.878 | 1.11 | 1.56 | 1.28 | 1.44

SRPK1, construct: Full length (from UniProt Q96SB4)
relative phosphorylation
Settings | at +1 | at +2 | at +3 | at +4 | at -1 | at -2 | at -3 | at -4 | at -5
A fixed | 0.85 | 1.23 | 0.682 | 1.04 | 1.12 | 1.65 | 0.811 | 1.21 | 1.51
D fixed | 0.273 | 1.46 | 0.499 | 1.13 | 0.486 | 1.63 | 0.506 | 0.682 | 0.77
E fixed | 0.377 | 1.33 | 0.412 | 0.886 | 0.589 | 0.981 | 0.363 | 0.734 | 0.686
F fixed | 0.387 | 0.626 | 0.424 | 0.741 | 0.476 | 0.637 | 0.297 | 0.713 | 1
G fixed | 0.942 | 1.03 | 0.911 | 1.12 | 0.959 | 1.34 | 0.634 | 1.14 | 1.28
H fixed | 0.563 | 1.61 | 0.697 | 0.988 | 1.2 | 1.72 | 0.454 | 0.956 | 0.954
I fixed | 0.607 | 0.588 | 0.46 | 0.823 | 0.554 | 0.51 | 0.372 | 0.736 | 0.796
K fixed | 1.55 | 1.14 | 1.43 | 1.47 | 2.19 | 1.34 | 1.02 | 1.61 | 1.58
L fixed | 0.698 | 0.623 | 0.46 | 0.781 | 0.741 | 0.429 | 0.326 | 0.725 | 0.788
M fixed | 0.62 | 0.715 | 0.499 | 0.773 | 0.723 | 0.5 | 0.302 | 0.823 | 0.892
N fixed | 0.613 | 1.15 | 0.796 | 1.05 | 1.02 | 1.19 | 0.433 | 0.962 | 0.867
P fixed | 4.75 | 1.34 | 1.69 | 1.36 | 1.9 | 1.03 | 0.6 | 1.38 | 1.01
Q fixed | 0.932 | 0.981 | 0.699 | 1.1 | 1.16 | 0.692 | 0.596 | 0.87 | 0.675
R fixed | 2.33 | 1.27 | 5.99 | 1.4 | 2.17 | 1.6 | 9.31 | 2.29 | 1.45
V fixed | 0.722 | 0.715 | 0.458 | 0.705 | 0.698 | 0.54 | 0.343 | 0.66 | 0.879
W fixed | 0.417 | 0.582 | 0.452 | 0.886 | 0.42 | 0.616 | 0.312 | 0.735 | 1.04
Y fixed | 0.378 | 0.607 | 0.439 | 0.745 | 0.572 | 0.594 | 0.322 | 0.771 | 0.829
pThr fixed | 0.489 | 1.26 | 0.585 | 1.19 | 0.548 | 0.681 | 0.51 | 0.772 | 0.765
pTyr fixed | 0.462 | 0.95 | 0.653 | 1.06 | 0.753 | 1.39 | 0.694 | 1.43 | 0.947
